B1: wrmScarlet::TDPT-1 [C. elegans] / TOP-2::3xFLAG [C. elegans] (parent)
chain 1: MSNSDDEIQEIEAKRQKMSQEDSEVEIEILDEPEQGKLKNSSMSDEQKLHEFAIITATDEAFAQSILQDVDWDLKKALDVFYGSEAFAEARSAAVMGASSSMASSGAAVMTAEDLKGFEVSVMSWNIDGLDGRSLLTRMKAVAHIVKNVNPDILFLQEVVDRDLAPIDKLQSLYKIYYSNKGCQYYTAILVSKMFDVEKHDVIHFQNSGMYRTLQILEGSIGGLKVFLLNTHLESTREHRPQRCAQFGFCMDKVREIIAQNPGALVFFGGDLNLRDEEVSRVPDGVKDAWEAAGSDNKTKFTWDTFKNDNKQGFHGAKMRFDRLYWSGPLDKVKFTLEGRQRIRSCLCFPSDHWAINATFFA
chain 2: MSDSDSEFSIEDSPKKKTAPKKEKASPKKKKDDANESMVMTEEDRNVFTSIDKKGGGSKQMAIEDIYQKKSQLEHILLRPDTYIGSVEHTEKTPMWVYNMEESKLEQRDISYVPGLYKIYDEILVNAADNKQRDPKMNTIKITINKEKNEISVYNNGKGIPVTQHKVEKVYVPELIFGTLLTSSNYNDDEKKVTGGRNGYGAKLCNIFSTKFTLETSSRDYKSAFKQTWIKNMTRDEEPKIVKSTDEDFTKITFSPDLAKFKMKELDDDICHLMARRAYDVAGSSKGVAVFLNGKRIPIKGFEDYVQMYTSQFNNEGEPLKIAYEQVGDRWQVALALSEKGFQQVSFVNSIATTKGGRHVDYVADQMVAKFIDSIKRKLTKTSMNIKPFQIKNHMWVFVNCLIENPTFDSQTKETMTLQQKQFGSTCVLSEKFSKAASSVGITDAVMSWVRFKQMDDLNKKCSKTKTSKLKGIPKLEDANDAGTKNSQQCTLILTEGDSAKTLAVSGLSVVGRDKYGVFPLRGKLLNVREGNMKQIADNAEVNAMIKILGLQYKKKYETEDDFKTLRYGKLMVMADQDQDGSHIKGLVINFIHHFWPSLIQRNFVEEFITPIVKATKGKEEVSFYSLPEYSEWRMNTDNWKSYKIKYYKGLGTSTSKEAKEYFLDMVRHRIRFKYNGADDDNAVDMAFSKKKIEERKDWLSKWMREKKDRKQQGLAEEYLYNKDTRFVTFKDFVNRELVLFSNLDNERSIPCLVDGFKPGQRKVLFACFKRADKREVKVAQLAGAVAEISAYHHGEQSLMGTIVNLAQDYVGSNNINLLLPIGQFGTRLQGGKDSASARYIFTQLSPVTRTLFPAHDDNVLRFLYEENQRIEPEWYCPIIPMVLVNGAQGIGTGWSTNIPNYNPRELVKNIKRLIAGEPQKALAPWYKNFRGKIIQIDPSRFACYGEVAVLDDNTIEITELPIKQWTQDYKEKVLEGLMESSDKKSPVIVDYKEYHTDTTVKFVVKLSPGKLRELERGQDLHQVFKLQAVINTTCMVLFDAAGCLRTYTSPEAITQEFYDSRQEKYVQRKEYLLGVLQAQSKRLTNQARFILAKINNEIVLENKKKAAIVDVLIKMKFDADPVKKWKEEQKLKELRESGEIELDEDDLAAVAVEEDEAISSAAKAVETKLSDYDYLVGMALIKLSEEEKNKLIKESEEKMAEVRVIEKKTWQDLWHEDLDNFVSELDKQEAREKADQDASIKNAAKKLAADAKTGRGPKKNVCTEVLPSKDGQRIEPMLDAATKAKYEKMSQPKKERVKKEPKEPKEPKKVKKEGQDIKKFMSPAAPKTAKKEKSDGFNSDMSEESDVEFDEGIDFDSDDDGVEREDVVSKPKPRTGKGAAKAEVIDLSDDDEVPAKKPAPAKKAAPKKKKSEFSDLSGGDSDEEAEKKPSTSKKPSPKKAAPKTAEPKSKAVTDFFGASKKNGKKAAGSDDEDDESFVVAPREKSGRARKAPPTYDVDSGSDSDQPKKKRGRVVDSDSD

The variants in one assay derive from B1. The assay can be described thus: co-immunoprecipitation (anti-FLAG magnetic agarose beads) with anti-RFP immunoblot, band quantification. The following applies: with TOP-2::3xFLAG [C. elegans]; parent: 1; read off a plot. (Immunoblotting shows a protein as a band on a membrane.)
As to chain 1 MSNSDDEIQEIEAKRQKMSQEDSEVEIEILDEPEQGKLKNSSMSDEQKLHEFAIITATDEAFAQSILQDVDWDLKKALDVFYGSEAFAEARSAAVMGASSSMASSGAAVMTAEDLKRFEVSVMSWNIDGLDGRSLLTRMKAVAHIVKNVNPDILFLQEVVDRDLAPIDKLQSLYKIYYSNKGCQYYTAILVSKMFDVEKHDVIHFQNSGMYRTLQILEGSIGGLKVFLLNTHLESTREHRPQRCAQFGFCMDKVREIIAQNPGALVFFGGDLNLRDEEVSRVPDGVKDAWEAAGSDNKTKFTWDTFKNDNKQGFHGAKMRFDRLYWSGPLDKVKFTLEGRQRIRSCLCFPSDHWAINATFFA [chain 1 G117R], the ratio to parent was 0.42.

The assay is the same for the next values; noted with them: with wrmScarlet::TDPT-1 [C. elegans]; parent: 1; read off a plot.
On to chain 2 R828C, for which the ratio to parent stood at 1.
